# Measurements: patent US20220112269A1 (WISCONSIN ALUMNI RESEARCH FOUNDATION, published 2022)
# Non-standard residues stand in square brackets, D forms with d. No end group written: not given here. Hyp = O=C(O)[C@@H]1C[C@@H](O)CN1
# Assays:
# AUC, CD, self-assembly = molecular target: the molecule itself; experiment: AUC, CD, self-assembly
# [1] = molecular target: the molecule itself; experiment: CD, TEM, DLS, rheology, self-assembly
# [2] = molecular target: the molecule itself; experiment: CD, TEM, DLS, self-association without fibers
# [3] = molecular target: the molecule itself; experiment: AUC, CD, AFM, TEM, self-assembly
# CD, TEM, self-assembly = molecular target: the molecule itself; experiment: CD, TEM, self-assembly
# [4] = molecular target: the molecule itself; experiment: AUC, CD, DLS, self-assembly
# [5] = molecular target: the molecule itself; experiment: CD, DLS, rheology, self-assembly
# [6] = molecular target: the molecule itself; experiment: sedimentation equilibrium AUC, monomer + multimer model, 15000 rpm, 4 C; self-assembly, lower bound
# Experimental: Sedimentation equilibrium experiments were performed at the UW BIF with an XL-A analytical ultracentrifuge from Beckman Coulter (Brea, Calif.) equipped with an An-60 Ti rotor. Samples were prepared at 0.6 mg/mL in 10 mM sodium phosphate buffer, pH 7.0, but were diluted to 0.3 mg/mL prior to the experiment. Sample (100 μL) and matching buffer (110 μL) were placed in a cell with an Epon 12-mm double-sector charcoal-filled centerpiece from Beckman Coulter. Experiments were run at 4° C. for more than 7 days at speeds of 8.8, 15, 25, 36, and 60 k rpm, and gradients recorded at 231 nm were monitored until superimposable 4 h apart. A buffer density of 1.0011 g/mL and a partial specific volume of 0.6955 mL/g calculated based on amino-acid content was used for analysis. Equilibrium gradients at 4° C. were modeled as single and multiple non-interacting species through nonlinear least-squares fits to gradient data. Analysis was performed with programs written for IGOR PRO software from WaveMetrics (Lake Oswego, Oreg.) by Dr. D. R. McCaslin (UW BIF). Non-sedimenting baselines between 0.04-0.07 OD were applied for all samples during analysis.
# [7] = molecular target: the molecule itself; experiment: CD, TEM, DLS, self-assembly of the disulfide-linked dimer
# CD, DLS, self-assembly = molecular target: the molecule itself; experiment: CD, DLS, self-assembly
# [8] = molecular target: the molecule itself; experiment: CD, TEM, DLS, self-assembly
protein,measurement,setting,value
"P[Hyp]GP[Hyp]GP[Hyp]GPKGPKGPKGP[Hyp]GP[Hyp]GD[Hyp]GD[Hyp]GD[Hyp] (nT=11, printed without the last Gly) [3sb-OKD]",binding result,"AUC, CD, self-assembly",binds
P[Hyp]GP[Hyp]GPKGPKGPKGPKGP[Hyp]GP[Hyp]GD[Hyp]GD[Hyp]GD[Hyp]GD[Hyp]GP[Hyp]GP[Hyp]G (nT=14) [4sbG-OKDO],binding result,[1],binds
PKGPKGPKGP[Hyp]GP[Hyp]GD[Hyp]GD[Hyp]GD[Hyp]GP[Hyp]GP[Hyp]GP[Hyp]G (nT=11) [3sbG-KDO],binding result,"AUC, CD, self-assembly",binds
P[Hyp]GP[Hyp]GPKGPKGPKGP[Hyp]GPKGP[Hyp]GP[Hyp]GD[Hyp]GP[Hyp]GD[Hyp]GD[Hyp]GD[Hyp]G (nT=14) [4sbG-OKD2ctrl],binding result,[2],binds
"P[Hyp]GP[Hyp]GP[Hyp]GP[Hyp]GPKGPKGPKGPKGP[Hyp]GP[Hyp]GD[Hyp]GD[Hyp]GD[Hyp]GD[Hyp] (nT=14, printed without the last Gly) [4sb-OKD]",binding result,[3],binds
P[Hyp]GP[Hyp]GP[Hyp]GPKGPKGPKGP[Hyp]GP[Hyp]GD[Hyp]GD[Hyp]GD[Hyp]G (nT=11) [3sbG-OKD],binding result,"CD, TEM, self-assembly",binds
"PKGPKGPKGP[Hyp]GP[Hyp]GD[Hyp]GD[Hyp]GD[Hyp]GP[Hyp]GP[Hyp]GP[Hyp] (not fully specified (C-terminus), nT=11, printed without the last Gly) [3sb-KDO]",binding result,[4],binds
P[Hyp]GP[Hyp]GP[Hyp]GPKGPKGPKGP[Hyp]GPKGP[Hyp]GD[Hyp]GD[Hyp]GD[Hyp]GP[Hyp]GD[Hyp]G (nT=14) [4sbG-gap4],binding result,[5],binds
"PXGPXGPXGPXGPKGPKGPKGPKGPXGPXGDXGDXGDXGDXG (O = 4-hydroxyproline (Hyp), Synthetic 42-residue collagen-mimetic peptide (nT=14)) [4sbG-OKD (""OKD"")]",Average oligomerization by AUC,[6],> 188 -mer
"OKD2-OKD2 (O = 4-hydroxyproline (Hyp); Cys in an interstrand disulfide bridge with Hcy of the other chain; O = 4-hydroxyproline (Hyp); Hcy = homocysteine, in an interstrand disulfide bridge with Cys of the other chain, Disulfide-linked dimer (nT 14-14)) chain 1: PXGPXGPXGPKGPKGPKGPKGXXGPXGDXGDXGDXGDXGPXG chain 2: PXGPXGPCGPKGPKGPKGPKGPXGPXGDXGDXGDXGDXGPXG",binding result,[7],binds
"PXGPXGPXGPKGPKGPKGPKGPXGPXGDXGDXGDXGDXGPXG (O = 4-hydroxyproline (Hyp), nT=14) [4sbG-OKD2]",binding result,[1],binds
"PXGPXGPCGPKGPKGPKGPKGPXGPXGDXGDXGDXGDXGPXG (O = 4-hydroxyproline (Hyp), Single Cys-bearing peptide, nT=14) [OKD2-C8]",binding result,"CD, DLS, self-assembly",binds
"PXGPXGPXGPKGPKGPKGPKGXXGPXGDXGDXGDXGDXGPXG (O = 4-hydroxyproline (Hyp); Hcy = homocysteine, Single Hcy-bearing peptide, nT=14) [OKD2-h22]",binding result,"CD, DLS, self-assembly",binds
P[Hyp]GPKGPKGPKGPKGP[Hyp]GP[Hyp]GD[Hyp]GD[Hyp]GD[Hyp]GD[Hyp]GP[Hyp]GP[Hyp]GP[Hyp]G (nT=14) [4sbG-KDO2],binding result,[8],binds
